Data from patent US20210388110A1 (published 2021).

Biological target: T1, soluble human GPC3 (human, UniProt P51654 25-563, limits assumed)
T1 construct: soluble human GPC3 as analyte; also called glypican 3
Assay: SPR (Biacore), soluble human GPC3

T1 sequence (P51654 other isoform, or with tags, fused parts or gaps limits assumed, form in doubt): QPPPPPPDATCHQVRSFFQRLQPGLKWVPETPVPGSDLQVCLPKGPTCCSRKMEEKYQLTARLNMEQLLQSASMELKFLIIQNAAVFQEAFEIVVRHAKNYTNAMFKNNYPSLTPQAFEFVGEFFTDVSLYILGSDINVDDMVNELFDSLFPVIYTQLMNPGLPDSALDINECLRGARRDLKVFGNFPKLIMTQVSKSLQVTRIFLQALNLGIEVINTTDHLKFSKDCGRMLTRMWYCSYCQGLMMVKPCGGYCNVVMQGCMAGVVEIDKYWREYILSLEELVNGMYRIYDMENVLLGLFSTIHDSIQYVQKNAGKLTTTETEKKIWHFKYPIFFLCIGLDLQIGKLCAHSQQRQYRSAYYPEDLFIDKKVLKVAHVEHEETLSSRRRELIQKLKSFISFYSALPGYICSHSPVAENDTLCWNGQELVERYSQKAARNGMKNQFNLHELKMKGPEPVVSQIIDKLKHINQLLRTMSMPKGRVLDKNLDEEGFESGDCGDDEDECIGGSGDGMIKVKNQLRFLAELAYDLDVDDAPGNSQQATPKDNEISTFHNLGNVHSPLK

Binder | Kd [nM]
H0610-G1dh/none-Hi-Kn010G3/L0243-k0 (antibody, human IgG1, kappa, single-arm (one Fab)) heavy: not shown EPKSSDKTHTCPPCPAPELLGGPSVFLFPPKPKDTLMISRTPEVTCVVVDVSHEDPEVKFNWYVDGVEVHNAKTKPREEQYNSTYRVVSVLTVLHQDWLNGKEYKCKVSNKALPAPIEKTISKAKGQPREPQVCTLPPSRDELTKNQVSLWCLVKGFYPSDIAVEWESNGQPENNYKTTPPVLDSDGSFFLYSKLTVDKSRWQQGNVFSCSVMHEALHNRYTQKSLSLSP light: DIVMTQSPLSLPVTPGEPASISCRSSEPPVHSNRNTYLHWYQQKPGQAPRLLIYKVSNRFRGVPDRFSGSGSGTDFTLKISRVEAEDVGVYYCGQGTQVPYTFGQGTKLEIKRTVAAPSVFIFPPSDEQLKSGTASVVCLLNNFYPREAKVQWKVDNALQSGNSQESVTEQDSKDSTYSLSSTLTLSKADYEKHKVYACEVTHQGLSSPVTKSFNRGEC | 0.649
H0610-G1dh/none-Hi-Kn010G3/L0259-k0 (antibody, human IgG1, kappa, single-arm (one Fab)) heavy: not shown EPKSSDKTHTCPPCPAPELLGGPSVFLFPPKPKDTLMISRTPEVTCVVVDVSHEDPEVKFNWYVDGVEVHNAKTKPREEQYNSTYRVVSVLTVLHQDWLNGKEYKCKVSNKALPAPIEKTISKAKGQPREPQVCTLPPSRDELTKNQVSLWCLVKGFYPSDIAVEWESNGQPENNYKTTPPVLDSDGSFFLYSKLTVDKSRWQQGNVFSCSVMHEALHNRYTQKSLSLSP light: DIVMTQSPLSLPVTPGEPASISCRSSQSPVHSNRNTYIHWYQQKPGQAPRLLIYKVSNRFSGVPDRFSGSGSGTDFTLKISRVEAEDVGVYYCTQGTQVPYTFGQGTKLEIKRTVAAPSVFIFPPSDEQLKSGTASVVCLLNNFYPREAKVQWKVDNALQSGNSQESVTEQDSKDSTYSLSSTLTLSKADYEKHKVYACEVTHQGLSSPVTKSFNRGEC | 0.334
H0610-G1dh/none-Hi-Kn010G3/L0249-k0 (antibody, human IgG1, kappa, single-arm (one Fab)) heavy: not shown EPKSSDKTHTCPPCPAPELLGGPSVFLFPPKPKDTLMISRTPEVTCVVVDVSHEDPEVKFNWYVDGVEVHNAKTKPREEQYNSTYRVVSVLTVLHQDWLNGKEYKCKVSNKALPAPIEKTISKAKGQPREPQVCTLPPSRDELTKNQVSLWCLVKGFYPSDIAVEWESNGQPENNYKTTPPVLDSDGSFFLYSKLTVDKSRWQQGNVFSCSVMHEALHNRYTQKSLSLSP light: DIVMTQSPLSLPVTPGEPASISCRPSQSPVHSNRNTYIQWYQQKPGQAPRLLIYKVSNRFSGVPDRFSGSGSGTDFTLKISRVEAEDVGVYYCSQGTQVPYTFGQGTKLEIKRTVAAPSVFIFPPSDEQLKSGTASVVCLLNNFYPREAKVQWKVDNALQSGNSQESVTEQDSKDSTYSLSSTLTLSKADYEKHKVYACEVTHQGLSSPVTKSFNRGEC | 0.00686
H0610-G1dh/none-Hi-Kn010G3/L0246-k0 (antibody, human IgG1, kappa, single-arm (one Fab)) heavy: not shown EPKSSDKTHTCPPCPAPELLGGPSVFLFPPKPKDTLMISRTPEVTCVVVDVSHEDPEVKFNWYVDGVEVHNAKTKPREEQYNSTYRVVSVLTVLHQDWLNGKEYKCKVSNKALPAPIEKTISKAKGQPREPQVCTLPPSRDELTKNQVSLWCLVKGFYPSDIAVEWESNGQPENNYKTTPPVLDSDGSFFLYSKLTVDKSRWQQGNVFSCSVMHEALHNRYTQKSLSLSP light: DIVMTQSPLSLPVTPGEPASISCRSSQSPVHSNRNTYIQWYQQKPGQAPRLLIYKVSNRFSGVPDRFSGSGSGTDFTLKISRVEAEDVGVYYCSQGTQVPYTFGQGTKLEIKRTVAAPSVFIFPPSDEQLKSGTASVVCLLNNFYPREAKVQWKVDNALQSGNSQESVTEQDSKDSTYSLSSTLTLSKADYEKHKVYACEVTHQGLSSPVTKSFNRGEC | 0.00121
H0610-G1dh/none-Hi-Kn010G3/L0258-k0 (antibody, human IgG1, kappa, single-arm (one Fab)) heavy: not shown EPKSSDKTHTCPPCPAPELLGGPSVFLFPPKPKDTLMISRTPEVTCVVVDVSHEDPEVKFNWYVDGVEVHNAKTKPREEQYNSTYRVVSVLTVLHQDWLNGKEYKCKVSNKALPAPIEKTISKAKGQPREPQVCTLPPSRDELTKNQVSLWCLVKGFYPSDIAVEWESNGQPENNYKTTPPVLDSDGSFFLYSKLTVDKSRWQQGNVFSCSVMHEALHNRYTQKSLSLSP light: DIVMTQSPLSLPVTPGEPASISCRSSQPPVHSNRNTYLHWYQQKPGQAPRLLIYKVSNRFSGVPDRFSGSGSGTDFTLKISRVEAEDVGVYYCTQGTQVPYTFGQGTKLEIKRTVAAPSVFIFPPSDEQLKSGTASVVCLLNNFYPREAKVQWKVDNALQSGNSQESVTEQDSKDSTYSLSSTLTLSKADYEKHKVYACEVTHQGLSSPVTKSFNRGEC | 0.000352
H0610-G1dh/none-Hi-Kn010G3/L0248-k0 (antibody, human IgG1, kappa, single-arm (one Fab)) heavy: not shown EPKSSDKTHTCPPCPAPELLGGPSVFLFPPKPKDTLMISRTPEVTCVVVDVSHEDPEVKFNWYVDGVEVHNAKTKPREEQYNSTYRVVSVLTVLHQDWLNGKEYKCKVSNKALPAPIEKTISKAKGQPREPQVCTLPPSRDELTKNQVSLWCLVKGFYPSDIAVEWESNGQPENNYKTTPPVLDSDGSFFLYSKLTVDKSRWQQGNVFSCSVMHEALHNRYTQKSLSLSP light: DIVMTQSPLSLPVTPGEPASISCRPSQSPVHSNRNTYIQWYQQKPGQAPRLLIYKVSNRFSGVPDRFSGSGSGTDFTLKISRVEAEDVGVYYCYQGTQVPYTFGQGTKLEIKRTVAAPSVFIFPPSDEQLKSGTASVVCLLNNFYPREAKVQWKVDNALQSGNSQESVTEQDSKDSTYSLSSTLTLSKADYEKHKVYACEVTHQGLSSPVTKSFNRGEC | 0.0555

The next lines start with the values.

Kd [nM] | Binder
0.211 | H0610-G1dh/none-Hi-Kn010G3/L0262-k0 (antibody, human IgG1, kappa, single-arm (one Fab)) heavy: not shown EPKSSDKTHTCPPCPAPELLGGPSVFLFPPKPKDTLMISRTPEVTCVVVDVSHEDPEVKFNWYVDGVEVHNAKTKPREEQYNSTYRVVSVLTVLHQDWLNGKEYKCKVSNKALPAPIEKTISKAKGQPREPQVCTLPPSRDELTKNQVSLWCLVKGFYPSDIAVEWESNGQPENNYKTTPPVLDSDGSFFLYSKLTVDKSRWQQGNVFSCSVMHEALHNRYTQKSLSLSP light: DIVMTQSPLSLPVTPGEPASISCRSSQPPVHSNRNTYLHWYQQKPGQAPRLLIYKVSNRFSGVPDRFSGSGSGTDFTLKISRVEAEDVGVYYCAQGTQVPYTFGQGTKLEIKRTVAAPSVFIFPPSDEQLKSGTASVVCLLNNFYPREAKVQWKVDNALQSGNSQESVTEQDSKDSTYSLSSTLTLSKADYEKHKVYACEVTHQGLSSPVTKSFNRGEC
0.564 | H0610-G1dh/none-Hi-Kn010G3/L0263-k0 (antibody, human IgG1, kappa, single-arm (one Fab)) heavy: not shown EPKSSDKTHTCPPCPAPELLGGPSVFLFPPKPKDTLMISRTPEVTCVVVDVSHEDPEVKFNWYVDGVEVHNAKTKPREEQYNSTYRVVSVLTVLHQDWLNGKEYKCKVSNKALPAPIEKTISKAKGQPREPQVCTLPPSRDELTKNQVSLWCLVKGFYPSDIAVEWESNGQPENNYKTTPPVLDSDGSFFLYSKLTVDKSRWQQGNVFSCSVMHEALHNRYTQKSLSLSP light: DIVMTQSPLSLPVTPGEPASISCRSSQSPVHSNRNTYIHWYQQKPGQAPRLLIYKVSNRFSGVPDRFSGSGSGTDFTLKISRVEAEDVGVYYCAQGTQVPYTFGQGTKLEIKRTVAAPSVFIFPPSDEQLKSGTASVVCLLNNFYPREAKVQWKVDNALQSGNSQESVTEQDSKDSTYSLSSTLTLSKADYEKHKVYACEVTHQGLSSPVTKSFNRGEC
0.0107 | H0610-G1dh/none-Hi-Kn010G3/L0261-k0 (antibody, human IgG1, kappa, single-arm (one Fab)) heavy: not shown EPKSSDKTHTCPPCPAPELLGGPSVFLFPPKPKDTLMISRTPEVTCVVVDVSHEDPEVKFNWYVDGVEVHNAKTKPREEQYNSTYRVVSVLTVLHQDWLNGKEYKCKVSNKALPAPIEKTISKAKGQPREPQVCTLPPSRDELTKNQVSLWCLVKGFYPSDIAVEWESNGQPENNYKTTPPVLDSDGSFFLYSKLTVDKSRWQQGNVFSCSVMHEALHNRYTQKSLSLSP light: DIVMTQSPLSLPVTPGEPASISCRSSQSPVHSNRNTYIQWYQQKPGQAPRLLIYKVSNRFSGVPDRFSGSGSGTDFTLKISRVEAEDVGVYYCTQGTQVPYTFGQGTKLEIKRTVAAPSVFIFPPSDEQLKSGTASVVCLLNNFYPREAKVQWKVDNALQSGNSQESVTEQDSKDSTYSLSSTLTLSKADYEKHKVYACEVTHQGLSSPVTKSFNRGEC
